Assay results taken from US20220227846A1.

Tests used:
Assay in all cases: SPR, calculated KD (Qdat software)
Aβ42 fibrils = Aβ42 fibrils (UniProt P05067)
[1] = molecular target: Aβ42 oligomers (ADDLs/globulomers) (UniProt P05067)
[2] = molecular target: C-terminal biotinylated Aβ42 ADDLs/globulomers (UniProt P05067)
[3] = molecular target: C-terminal biotinylated Aβ42 monomers (UniProt P05067)
[4] = molecular target: N-terminal biotinylated Aβ42 monomers (UniProt P05067)
Chain of N-terminal biotinylated Aβ42 monomers (P05067 672-713 limits assumed): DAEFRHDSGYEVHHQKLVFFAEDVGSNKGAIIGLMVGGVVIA

Chain of Aβ42 oligomers (ADDLs/globulomers) (P05067 672-713 limits assumed): as above
Chain of C-terminal biotinylated Aβ42 monomers (P05067 672-713 limits assumed): as above
Chain of Aβ42 fibrils (P05067 672-713 limits assumed): as above
Chain of C-terminal biotinylated Aβ42 ADDLs/globulomers (P05067 672-713 limits assumed): as above

Substance: 6E10 (mouse mAb to Aβ amino acids 1-16; BioLegend, San Diego, CA) (antibody)
- Kd (Aβ42 fibrils): 0.056 µM
- Kd [1]: 0.069 µM
- Kd [2]: 0.05 µM
- Kd [3]: 0.047 µM
- Kd [4]: 0.158 µM
